# Reference: patent US20150004189A1 (published 2015)
# T1: HLA DP molecule DPB1*0401 (human)
# T1 chain 1: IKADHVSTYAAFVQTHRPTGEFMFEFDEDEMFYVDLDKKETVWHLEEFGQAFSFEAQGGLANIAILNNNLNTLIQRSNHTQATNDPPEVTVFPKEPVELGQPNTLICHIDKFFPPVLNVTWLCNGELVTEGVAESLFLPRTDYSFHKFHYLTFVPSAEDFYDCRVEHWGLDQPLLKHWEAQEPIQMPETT
# T1 chain 2: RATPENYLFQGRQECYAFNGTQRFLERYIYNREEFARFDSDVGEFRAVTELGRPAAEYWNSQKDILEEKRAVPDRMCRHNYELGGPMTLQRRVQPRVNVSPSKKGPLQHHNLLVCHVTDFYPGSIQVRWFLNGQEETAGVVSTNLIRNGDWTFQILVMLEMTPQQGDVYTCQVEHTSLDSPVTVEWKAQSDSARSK
# T2: HLA-DP DPB1*0401 (human)
# T2 chain 1: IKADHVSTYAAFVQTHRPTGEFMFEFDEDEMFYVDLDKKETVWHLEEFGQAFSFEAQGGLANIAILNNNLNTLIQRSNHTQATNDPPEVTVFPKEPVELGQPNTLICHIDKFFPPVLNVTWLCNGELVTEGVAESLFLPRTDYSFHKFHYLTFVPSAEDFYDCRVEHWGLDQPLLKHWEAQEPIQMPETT
# T2 chain 2: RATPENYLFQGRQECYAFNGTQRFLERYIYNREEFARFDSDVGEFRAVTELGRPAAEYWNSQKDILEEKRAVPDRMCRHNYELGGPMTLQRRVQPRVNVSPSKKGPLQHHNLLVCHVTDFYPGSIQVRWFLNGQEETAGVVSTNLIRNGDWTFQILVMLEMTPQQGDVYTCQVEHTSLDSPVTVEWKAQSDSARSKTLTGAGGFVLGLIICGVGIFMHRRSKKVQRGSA
# How the values were obtained:
# [1] = target: T1, HLA DP molecule DPB1*0401; test: competition vs radiolabeled peptide, purified HLA-DP
# [2] = target: HLA-DQ molecule DQB1*0502 (human); test: inhibition of radiolabeled peptide binding to purified HLA-DQ
# [3] = target: HLA-DQ molecule DQB1*0503 (human); test: as above
# [4] = target: HLA-DQ molecule DQB1*0602 (human); test: as above
# HLA-DP DPB1*0401 = target: T2, HLA-DP DPB1*0401; test: inhibition of radiolabeled peptide binding to purified HLA-DP
# [5] = target: HLA DQ molecule DQB1*0502 (human); test: inhibition of radiolabeled peptide binding to purified HLA class II
# [6] = target: HLA DQ molecule DQB1*0503 (human); test: as above
# [7] = target: HLA DQ molecule DQB1*0602 (human); test: as above
# [8] = target: HLA-DQ molecule DQB1*0202 (human); test: inhibition of radiolabeled peptide binding to purified HLA-DQ
# [9] = target: HLA DQ molecule DQB1*0202 (human); test: inhibition of radiolabeled peptide binding to purified HLA class II
# [10] = target: HLA DQ molecule DQB1*0502 (human); test: as above; remark: listed apart in the source
# [11] = target: HLA DQ molecule DQB1*0503 (human); test: as above; remark: listed apart in the source
# [12] = target: HLA DQ molecule DQB1*0602 (human); test: as above; remark: listed apart in the source
# [13] = target: HLA-DQ molecule DQB1*0202 (human); test: inhibition of radiolabeled peptide binding to purified HLA
# [14] = target: HLA-DQ molecule DQB1*0502 (human); test: as above
# [15] = target: HLA-DQ molecule DQB1*0503 (human); test: as above
# [16] = target: HLA-DQ molecule DQB1*0602 (human); test: as above
# [17] = target: HLA-DP molecule DPB1*1401 (human); test: inhibition of radiolabeled peptide binding to purified HLA-DP
# [18] = target: HLA-DP molecule DPB1*2001 (human); test: as above
binder,measurement,setting,value
"NGNELLLDLSLTKVN [Fel d 1 2 peptide, position 36, NGNELLLDLSLTKVN (Peptide ID 3324.1055)]",IC50,[1],0.59 µM
KALWIIFSQNMNIKL [Cup a 1 (66-80) peptide KALWIIFSQNMNIKL],IC50,[2],50 µM
same,IC50,[3],29 µM
IVYIKPAKNIYSFNE [Bet v 6 (211-225) peptide IVYIKPAKNIYSFNE],IC50,[2],5.83 µM
same,IC50,[3],0.65 µM
same,IC50,[4],0.019 µM
ASVIPPARLFKAFVL [Que a 1 peptide 11-25 ASVIPPARLFKAFVL (Peptide ID 3324.1587)],IC50,HLA-DP DPB1*0401,0.917 µM
DIYNYMEPYVSKVDP [Dac g 4 (1-15) peptide DIYNYMEPYVSKVDP],IC50,[2],2.02 µM
"GSCWAFSGVAATESA [Der f 1 (131-145) peptide GSCWAFSGVAATESA, Peptide ID 3324.0670]",IC50,[5],9.32 µM
same,IC50,[6],7.93 µM
same,IC50,[7],1.33 µM
NMNIKLKMPLYVAGH [Cup s 1 (96-110) peptide NMNIKLKMPLYVAGH],IC50,[8],50 µM
same,IC50,[2],20.8 µM
same,IC50,[3],11.7 µM
same,IC50,[4],14.5 µM
KAFVLDSDNLIPKVV [Que a 1 (21-35) peptide KAFVLDSDNLIPKVV],IC50,[8],0.194 µM
same,IC50,[3],2.64 µM
KALWIIFSQNMNIKL [Cup a 1 peptide 66-80 KALWIIFSQNMNIKL (Peptide ID 3324.0604)],IC50,HLA-DP DPB1*0401,1.73 µM
"FSGVAATESAYLAYR [Der f 1 (136-150) peptide FSGVAATESAYLAYR, Peptide ID 3324.0666]",IC50,[5],1.21 µM
same,IC50,[6],4.19 µM
same,IC50,[7],2.02 µM
"IAFFRKEPLKECGGI [Lol p 11 peptide, position 116, IAFFRKEPLKECGGI (Peptide ID 3337.0029)]",IC50,[9],26.2 µM
same,IC50,[10],1.44 µM
same,IC50,[11],0.903 µM
same,IC50,[12],50 µM
IKSDKPLKGPFNFRF [Lol p 2 peptide 56-70 IKSDKPLKGPFNFRF (Peptide ID 3324.1140)],IC50,HLA-DP DPB1*0401,12.3 µM
LEKISNEIKIVATPD [Bet v 1 peptide 3324.0353 (position 96)],IC50,[13],8.67 µM
same,IC50,[14],5.09 µM
same,IC50,[15],8.89 µM
same,IC50,[16],0.019 µM
"GAYETYKFIPSLEAA [Pha a 5 peptide, position 201, GAYETYKFIPSLEAA (Peptide ID 3324.1433)]",IC50,[11],0.358 µM
same,IC50,[12],0.846 µM
DGVWEIKSDKPLKGP [Lol p 2 peptide 51-65 DGVWEIKSDKPLKGP (Peptide ID 3324.1139)],IC50,HLA-DP DPB1*0401,5.21 µM
"LWEVKSAKPLTGPMN [Lol p 3 peptide, position 51, LWEVKSAKPLTGPMN (Peptide ID 3337.0031), listing 1 of 2 here]",IC50,[9],2.44 µM
same,IC50,[12],3.95 µM
"DEYVEQVAQYKALPV [Fel d 1 1 (41-55) peptide DEYVEQVAQYKALPV, Peptide ID 3324.1049]",IC50,[5],0.337 µM
same,IC50,[7],0.14 µM
"DAFIAALTEALRVIA [Pha a 5 peptide, position 121, DAFIAALTEALRVIA (Peptide ID 3324.1432)]",IC50,[17],29.7 µM
same,IC50,[18],0.031 µM
PARLFKAFVLDSDNL [Que a 1 (16-30) peptide PARLFKAFVLDSDNL],IC50,[8],0.31 µM
same,IC50,[2],0.0079 µM
same,IC50,[3],0.161 µM
same,IC50,[4],2.6 µM
"LIEKINAGFKAAVAA [Lol p 5 1 peptide, position 71, LIEKINAGFKAAVAA (Peptide ID 3324.1175)]",IC50,[17],2.42 µM
"IKSDKPLKGPFNFRF [Lol p 2 peptide, position 56, IKSDKPLKGPFNFRF (Peptide ID 3324.1140)]",IC50,[10],38.2 µM
same,IC50,[11],50 µM
same,IC50,[12],50 µM
ASEVFKAVEAYLVAH [Que a 1 (141-155) peptide ASEVFKAVEAYLVAH],IC50,[8],0.953 µM
same,IC50,[2],5.31 µM
same,IC50,[3],2.04 µM
"NALSVLDKIYTSPLC [Fel d 1 1 (78-92) peptide NALSVLDKIYTSPLC, Peptide ID 3324.1050]",IC50,[6],5.83 µM
same,IC50,[7],1 µM
EDTNIYNSNEAFKVE [Cup a 1 (316-330) peptide EDTNIYNSNEAFKVE],IC50,[8],7.54 µM
same,IC50,[2],2.42 µM
same,IC50,[4],8.29 µM
GSDEKNLALSIKYNK [Dac g 2 (11-25) peptide GSDEKNLALSIKYNK],IC50,[8],7.2 µM
same,IC50,[3],50 µM
same,IC50,[4],0.13 µM
EKALWIIFSQNMNIK [Cup s 1 peptide 86-100 EKALWIIFSQNMNIK (Peptide ID 3324.0615)],IC50,HLA-DP DPB1*0401,1.54 µM
"RYANPIAFFRKEPLK [Lol p 11 peptide, position 111, RYANPIAFFRKEPLK (Peptide ID 3324.1138)]",IC50,[9],26 µM
same,IC50,[10],0.793 µM
same,IC50,[11],1.6 µM
same,IC50,[12],9.74 µM
"MRNVFDDVVPADFKV [Lol p 2 peptide, position 76, MRNVFDDVVPADFKV (Peptide ID 3337.0030), listing 1 of 2 here]",IC50,[11],0.347 µM
same,IC50,[12],39.5 µM
EKALWIIFSQNMNIK [Cup s 1 (86-100) peptide EKALWIIFSQNMNIK],IC50,[8],5.56 µM
same,IC50,[2],13 µM
same,IC50,[3],1.93 µM
PARLFKAFVLDSDNL [Que a 1 peptide 16-30 PARLFKAFVLDSDNL (Peptide ID 3324.1585)],IC50,HLA-DP DPB1*0401,0.052 µM
"PAAAYATATPAAATA [Lol p 5 1 peptide, position 306, PAAAYATATPAAATA (Peptide ID 3324.1184)]",IC50,[9],0.679 µM
same,IC50,[10],7.45 µM
same,IC50,[12],0.224 µM
RYANPIAFFRKEPLK [Lol p 11 peptide 111-125 RYANPIAFFRKEPLK (Peptide ID 3324.1138)],IC50,HLA-DP DPB1*0401,2.06 µM
"DGVWEIKSDKPLKGP [Lol p 2 peptide, position 51, DGVWEIKSDKPLKGP (Peptide ID 3324.1139)]",IC50,[9],0.53 µM
same,IC50,[12],26.6 µM
"DSYKFIPTLVAAVKQ [Lol p 5 1 peptide, position 236, DSYKFIPTLVAAVKQ (Peptide ID 3324.1165)]",IC50,[9],5.86 µM
same,IC50,[10],50 µM
same,IC50,[11],4.64 µM
"LWEVKSAKPLTGPMN [Lol p 3 peptide, position 51, LWEVKSAKPLTGPMN (Peptide ID 3337.0031), listing 2 of 2 here]",IC50,[17],18.6 µM
same,IC50,[18],0.671 µM
"MRNVFDDVVPADFKV [Lol p 2 peptide, position 76, MRNVFDDVVPADFKV (Peptide ID 3337.0030), listing 2 of 2 here]",IC50,[17],24.2 µM
same,IC50,[18],0.082 µM
"SDAKTLVLNIKYTRP [Lol p 3 peptide, position 11, SDAKTLVLNIKYTRP (Peptide ID 3324.1142)]",IC50,[9],25.7 µM
same,IC50,[10],50 µM
same,IC50,[11],33.9 µM
DIYNYMEPYVSKVDP [Dac g 4 peptide 1-15 DIYNYMEPYVSKVDP (Peptide ID 3324.0663)],IC50,HLA-DP DPB1*0401,23.4 µM
"DAYVATLTEALRVIA [Lol p 5 1 peptide, position 151, DAYVATLTEALRVIA (Peptide ID 3324.1167)]",IC50,[9],1.8 µM
same,IC50,[10],50 µM
same,IC50,[11],50 µM
